± gives the standard deviation of the averaged measurements.
B1: library; a variant is named by its letters at N, in order (parent)
chain: GCUGUCACCGGUGCUUGGUACGUUAUAUUCAGCCGGUCUGAUGAGUCUNNNNNNAGACGAAACAGC

Legend:
[1] = variants of: B1; assay: normalized RNA/DNA level without ligand (relative to sTRSVctl = 100) (log10 (% of sTRSVctl)); HEK293T overexpressing SLC46A1; higher = less ribozyme self-cleavage, higher mRNA level; conditions: without (6R,S)-folinic acid; ligand present: no
Procedure, shortened: (§1)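 Library plasmids encoding reporter-linked ribozyme switches (mCherry, or eGFP for some folinic acid experiments) were transfected into HEK293T at 4 µg per 6-well well. Ligand, when used, was added 1 h before transfection. Total RNA was extracted with EDTA 72 h later, then reverse-transcribed, amplified, barcoded and sequenced. RNA level was RNA reads over DNA reads, divided by a spiked-in non-cleaving control (or the top 25 sequences), ×100, log10; only sequences with ≥100 DNA reads were kept.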

[2] = variants of: B1; assay: normalized RNA/DNA level with ligand (relative to sTRSVctl = 100) (log10 (% of sTRSVctl)); HEK293T overexpressing SLC46A1; ligand concentration (+) RNA-Seq: 6 mM; higher = less ribozyme self-cleavage, higher mRNA level; conditions: with (6R,S)-folinic acid; ligand present: yes
Procedure, shortened: as §1

| Variant | normalized RNA/DNA level without ligand (log10) [1] | normalized RNA/DNA level with ligand (log10) [2] |
| --- | --- | --- |
| GAGACA | 1.976 ± 0.0079 | 2.01 ± 0.031 |
| GAGACC | 2.021 ± 0.0065 | 2.04 ± 0.057 |
| GAGACG | 1.978 ± 0.014 | 2.031 ± 0.014 |
| AAGAAU | 1.95 ± 0.0044 | 2.011 ± 0.014 |
| UACAAC | 2.0034 ± 0.0014 | 2.02 ± 0.034 |
| UAAUUU | 1.979 ± 0.0057 | 2.01 ± 0.032 |
| UAAUUA | 1.991 ± 0.0035 | 2.01 ± 0.048 |
| UAAUUC | 2.01 ± 0.027 | 2.02 ± 0.031 |
| GACGGC | 2.03 ± 0.016 | 2.04 ± 0.072 |
| GACAUC | 2.05 ± 0.034 | 2.04 ± 0.082 |
| GACAUG | 1.925 ± 0.0021 | 1.994 ± 0.009 |
| AAAUUA | 1.97 ± 0.012 | 1.99 ± 0.03 |
| GAGCAA | 1.96 ± 0.025 | 2 ± 0.049 |
| AAGAGC | 1.984 ± 0.0028 | 1.99 ± 0.044 |
| CAGACG | 2.028 ± 0.0044 | 2.009 ± 0.0054 |
| CAGACU | 2.048 ± 0.0077 | 2.011 ± 0.0042 |
| AACUAA | 1.97 ± 0.023 | 1.96 ± 0.026 |
| AACUAG | 1.94 ± 0.022 | 2.02 ± 0.039 |
| AACUAU | 1.975 ± 0.0066 | 2 ± 0.037 |

| Variant | normalized RNA/DNA level without ligand (log10) [1] | normalized RNA/DNA level with ligand (log10) [2] |
| --- | --- | --- |
| GACGAC | 1.956 ± 0.004 | 2.009 ± 0.018 |
| UACCUA | 2.0242 ± 0.0004 | 2.069 ± 0.019 |
| UACCUU | 2.02 ± 0.0067 | 2.046 ± 0.014 |
| GACUAA | 1.977 ± 0.008 | 1.98 ± 0.043 |
| AAGCAG | 1.925 ± 0.0059 | 2 ± 0.045 |
| AAGCAC | 2.022 ± 0.0075 | 1.98 ± 0.045 |
| AAAUGU | 1.9431 ± 0.0016 | 1.99 ± 0.028 |
| UACCAU | 1.9686 ± 0.001 | 2 ± 0.038 |
| UACCAA | 1.966 ± 0.0066 | 1.99 ± 0.02 |
| UACCAG | 1.862 ± 0.011 | 1.96 ± 0.025 |
| CAGAUG | 2.0121 ± 0.0011 | 2.026 ± 0.019 |
| CAGAUC | 2.046 ± 0.013 | 2.03 ± 0.052 |
| CAGAUU | 1.997 ± 0.01 | 2.004 ± 0.011 |
| CACAAC | 2.004 ± 0.016 | 1.99 ± 0.05 |
| CACAAG | 1.961 ± 0.006 | 2.013 ± 0.02 |
| CACAAU | 1.954 ± 0.018 | 1.99 ± 0.057 |
| AACUCA | 2.03 ± 0.0039 | 2.003 ± 0.016 |
| AACUCC | 2.06 ± 0.031 | 2.01 ± 0.032 |
| AACUCU | 2.0187 ± 0.0003 | 2.02 ± 0.031 |

| Variant | normalized RNA/DNA level without ligand (log10) [1] | normalized RNA/DNA level with ligand (log10) [2] |
| --- | --- | --- |
| GACCCG | 2.031 ± 0.0022 | 2 ± 0.06 |
| GACCCC | 2.017 ± 0.0088 | 2 ± 0.045 |
| GACCCA | 2.018 ± 0.0089 | 2 ± 0.04 |
| AACGAU | 1.959 ± 0.018 | 2 ± 0.035 |
| AACGAC | 2.017 ± 0.013 | 1.991 ± 0.019 |
| CACCCC | 2.031 ± 0.019 | 2.01 ± 0.022 |
| CACCCA | 2.011 ± 0.017 | 2.01 ± 0.059 |
| CACCCG | 2.018 ± 0.0098 | 2.01 ± 0.031 |
| CACCCU | 2.059 ± 0.0058 | 2.04 ± 0.012 |
| AAAUCU | 2.0432 ± 0.0014 | 2.03 ± 0.048 |
| CAGCAC | 2.03 ± 0.022 | 1.98 ± 0.045 |
| CAGCAG | 1.962 ± 0.015 | 2.03 ± 0.052 |
| CAGCAA | 1.963 ± 0.018 | 1.971 ± 0.013 |
| UAGCAA | 1.918 ± 0.0043 | 1.98 ± 0.035 |
| UAGCAC | 1.992 ± 0.0065 | 2 ± 0.036 |
| CAAUGC | 2.03 ± 0.027 | 2.023 ± 0.02 |
| CAAUGG | 1.94 ± 0.0094 | 1.983 ± 0.0083 |
| CAAUGU | 1.981 ± 0.0089 | 1.98 ± 0.044 |
| AACAGC | 2.0178 ± 0.00095 | 2.02 ± 0.022 |
